The text below walks through data of article PMC12363564, “Modulation of the PTPRS proteoglycan switch by antibodies binding to the membrane-proximal fibronectin-type III domain” (The Journal of Biological Chemistry, 2025).

As usually defined, the koff is a measure of how fast the partners let go of each other. Broadly, the Kd is the free concentration of one partner at which half of the binding sites on the other are occupied at equilibrium, for simple one-to-one binding. A lower Kd goes with higher affinity.

Assay [1] concerns the target T1, PTPRS^Δ326 (hPTPRS-HA N-terminal truncation lacking Ig-like domains 1 to 3) (Homo sapiens, UniProt Q13332, point mutant).
T1 construct: human PTPRS isoform 1, N-terminal truncation lacking Ig-like domains 1 to 3, obtained from WT hPTPRS-HA by site-directed mutagenesis; source: HEK293T, transfected, in RIPA lysate; not shown: HA, C-terminal, kept
Description: co-IP; RIPA lysates of HEK293T cells overexpressing HA-tagged full length or truncated hPTPRS incubated with the antibody for 2 h at 4 °C, Protein G Sepharose, anti-HA blot. The conditions noted are these: one partner purified.

In assay [2] the target is T2, PTPRS^Δ1096 (hPTPRS-HA N-terminal truncation lacking the ECD including most of Fn8) (Homo sapiens, UniProt Q13332, point mutant).
T2 construct: human PTPRS isoform 1, N-terminal truncation lacking the ECD including most of Fn8, obtained from WT hPTPRS-HA by site-directed mutagenesis; source: HEK293T, transfected, in RIPA lysate; not shown: HA, C-terminal, kept
Described as above. To be noted: one partner purified.

The target of assay [3] is T3, C-terminally 6xHis tagged mouse PTPRS (mPTPRS) ECD (mouse, UniProt B0V2N1 30-1257).
T3 chain: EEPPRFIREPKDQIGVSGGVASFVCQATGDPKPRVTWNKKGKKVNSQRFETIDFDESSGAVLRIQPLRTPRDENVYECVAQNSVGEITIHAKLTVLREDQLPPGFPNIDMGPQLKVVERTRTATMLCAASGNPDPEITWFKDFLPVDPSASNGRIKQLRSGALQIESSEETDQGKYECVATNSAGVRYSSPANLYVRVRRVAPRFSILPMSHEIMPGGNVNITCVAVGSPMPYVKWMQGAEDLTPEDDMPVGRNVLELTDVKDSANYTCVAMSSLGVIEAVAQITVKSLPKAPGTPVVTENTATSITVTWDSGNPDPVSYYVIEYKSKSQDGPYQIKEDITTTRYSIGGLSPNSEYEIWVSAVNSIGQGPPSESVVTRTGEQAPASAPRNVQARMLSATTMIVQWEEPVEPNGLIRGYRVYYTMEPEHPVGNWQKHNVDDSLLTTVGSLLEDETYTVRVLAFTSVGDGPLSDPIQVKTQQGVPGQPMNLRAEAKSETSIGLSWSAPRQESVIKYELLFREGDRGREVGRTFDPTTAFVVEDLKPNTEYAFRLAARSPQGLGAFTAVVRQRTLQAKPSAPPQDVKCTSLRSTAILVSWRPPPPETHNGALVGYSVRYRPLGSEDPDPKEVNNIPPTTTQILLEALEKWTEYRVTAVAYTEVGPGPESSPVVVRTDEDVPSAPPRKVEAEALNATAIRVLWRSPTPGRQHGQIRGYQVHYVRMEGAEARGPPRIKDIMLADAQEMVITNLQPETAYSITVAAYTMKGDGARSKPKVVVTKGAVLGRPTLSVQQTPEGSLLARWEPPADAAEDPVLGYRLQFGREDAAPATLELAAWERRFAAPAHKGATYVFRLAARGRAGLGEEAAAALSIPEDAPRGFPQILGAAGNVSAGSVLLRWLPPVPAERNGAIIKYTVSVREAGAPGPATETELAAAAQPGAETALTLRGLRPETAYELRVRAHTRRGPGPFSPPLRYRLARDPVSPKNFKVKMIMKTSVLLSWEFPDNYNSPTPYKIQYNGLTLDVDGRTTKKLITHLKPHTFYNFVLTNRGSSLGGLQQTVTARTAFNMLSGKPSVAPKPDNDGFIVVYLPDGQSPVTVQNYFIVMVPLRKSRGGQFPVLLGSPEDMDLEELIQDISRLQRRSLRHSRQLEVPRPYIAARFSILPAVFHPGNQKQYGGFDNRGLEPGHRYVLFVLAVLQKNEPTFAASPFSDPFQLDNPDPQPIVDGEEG
The assay can be described thus: SPR.

The target of assay [4] is T4, 6xHis-tagged hPTPRS Fn9 (residues 1117-1270) (human, UniProt Q13332 1117-1270).
T4 chain: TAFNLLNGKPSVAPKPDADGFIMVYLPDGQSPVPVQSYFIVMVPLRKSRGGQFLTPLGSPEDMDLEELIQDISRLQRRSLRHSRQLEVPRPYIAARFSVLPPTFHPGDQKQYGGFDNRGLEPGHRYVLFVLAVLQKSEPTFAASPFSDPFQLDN
Description: BLI.

The target in assay [5] is T5, C-terminally 6xHis tagged mouse PTPRS (mPTPRS) ECD (Mus musculus, UniProt B0V2N1).
T5 construct: also called mPTPRS ectodomain; PTPRS ectodomain; source: HEK293T, transiently transfected, supernatant; purified (Ni-NTA, HiTrap heparin); not shown: His6, C-terminal, kept
Description: SPR; Octet SF3; anti-PTPRS Ab immobilised by amine coupling on a PCH sensor chip; analyte mPTPRS ECD 2500 nM to 9.77 nM; 1x PBS with 0.005% Tween-20; multi-cycle kinetics. The conditions noted are these: both partners purified. A general note: In SPR one partner is held on a chip, and binding of the other changes the refractive index at the surface.

In assay [6] the target is T3, C-terminally 6xHis tagged mouse PTPRS …. The assay can be described thus: BLI. (BLI is a label-free optical method that tracks binding on a fibre tip over time.)
Assay [7] concerns the target T5, C-terminally 6xHis tagged mouse PTPRS …. Description: BLI; His-tagged ligand (mPTPRS ECD or hPTPRS Fn9) immobilised on anti-6xHis probes at 100 to 200 nM; antibodies or scFv-Fc fusions as analytes; Gator K buffer (0.02% BSA, 0.002% Tween-20 in PBS, pH 7.4), 37 °C; biphasic (2:1) association model. The conditions noted are these: both partners purified.
Assay [8] deals with T4, 6xHis-tagged hPTPRS Fn9 (residues …). The assay can be described thus: BLI.
For assay [9], the target named is T6, WT human PTPRS (hPTPRS) isoform 1 with a C-terminal HA tag (human, UniProt Q13332).
T6 construct: human PTPRS isoform 1, open reading frame in pcDNA3.1 (+); also called PTPRS-HA; hPTPRS-HA; source: HEK293T, transfected; in RIPA lysate (immunoprecipitation), on or in cells (flow cytometry, PLA); not shown: HA, C-terminal, kept
The assay can be described thus: flow cytometry on cells; HEK293T cells transfected with hPTPRS-HA (WT or Fn9mut) or empty vector, incubated 1 h with the antibody, AF568-labelled anti-mouse IgG. To be noted: one partner purified. (Flow cytometry measures light scatter and fluorescence of single cells or particles in a stream.)

Assay [10] addresses T5, C-terminally 6xHis tagged mouse PTPRS …. Description: BLI; data not shown; 9H5 on C-terminally 6xHis tagged mPTPRS ECD immobilised on an anti-6xHis probe. The conditions noted are these: both partners purified.

T6 sequence (Q13332 30-1948): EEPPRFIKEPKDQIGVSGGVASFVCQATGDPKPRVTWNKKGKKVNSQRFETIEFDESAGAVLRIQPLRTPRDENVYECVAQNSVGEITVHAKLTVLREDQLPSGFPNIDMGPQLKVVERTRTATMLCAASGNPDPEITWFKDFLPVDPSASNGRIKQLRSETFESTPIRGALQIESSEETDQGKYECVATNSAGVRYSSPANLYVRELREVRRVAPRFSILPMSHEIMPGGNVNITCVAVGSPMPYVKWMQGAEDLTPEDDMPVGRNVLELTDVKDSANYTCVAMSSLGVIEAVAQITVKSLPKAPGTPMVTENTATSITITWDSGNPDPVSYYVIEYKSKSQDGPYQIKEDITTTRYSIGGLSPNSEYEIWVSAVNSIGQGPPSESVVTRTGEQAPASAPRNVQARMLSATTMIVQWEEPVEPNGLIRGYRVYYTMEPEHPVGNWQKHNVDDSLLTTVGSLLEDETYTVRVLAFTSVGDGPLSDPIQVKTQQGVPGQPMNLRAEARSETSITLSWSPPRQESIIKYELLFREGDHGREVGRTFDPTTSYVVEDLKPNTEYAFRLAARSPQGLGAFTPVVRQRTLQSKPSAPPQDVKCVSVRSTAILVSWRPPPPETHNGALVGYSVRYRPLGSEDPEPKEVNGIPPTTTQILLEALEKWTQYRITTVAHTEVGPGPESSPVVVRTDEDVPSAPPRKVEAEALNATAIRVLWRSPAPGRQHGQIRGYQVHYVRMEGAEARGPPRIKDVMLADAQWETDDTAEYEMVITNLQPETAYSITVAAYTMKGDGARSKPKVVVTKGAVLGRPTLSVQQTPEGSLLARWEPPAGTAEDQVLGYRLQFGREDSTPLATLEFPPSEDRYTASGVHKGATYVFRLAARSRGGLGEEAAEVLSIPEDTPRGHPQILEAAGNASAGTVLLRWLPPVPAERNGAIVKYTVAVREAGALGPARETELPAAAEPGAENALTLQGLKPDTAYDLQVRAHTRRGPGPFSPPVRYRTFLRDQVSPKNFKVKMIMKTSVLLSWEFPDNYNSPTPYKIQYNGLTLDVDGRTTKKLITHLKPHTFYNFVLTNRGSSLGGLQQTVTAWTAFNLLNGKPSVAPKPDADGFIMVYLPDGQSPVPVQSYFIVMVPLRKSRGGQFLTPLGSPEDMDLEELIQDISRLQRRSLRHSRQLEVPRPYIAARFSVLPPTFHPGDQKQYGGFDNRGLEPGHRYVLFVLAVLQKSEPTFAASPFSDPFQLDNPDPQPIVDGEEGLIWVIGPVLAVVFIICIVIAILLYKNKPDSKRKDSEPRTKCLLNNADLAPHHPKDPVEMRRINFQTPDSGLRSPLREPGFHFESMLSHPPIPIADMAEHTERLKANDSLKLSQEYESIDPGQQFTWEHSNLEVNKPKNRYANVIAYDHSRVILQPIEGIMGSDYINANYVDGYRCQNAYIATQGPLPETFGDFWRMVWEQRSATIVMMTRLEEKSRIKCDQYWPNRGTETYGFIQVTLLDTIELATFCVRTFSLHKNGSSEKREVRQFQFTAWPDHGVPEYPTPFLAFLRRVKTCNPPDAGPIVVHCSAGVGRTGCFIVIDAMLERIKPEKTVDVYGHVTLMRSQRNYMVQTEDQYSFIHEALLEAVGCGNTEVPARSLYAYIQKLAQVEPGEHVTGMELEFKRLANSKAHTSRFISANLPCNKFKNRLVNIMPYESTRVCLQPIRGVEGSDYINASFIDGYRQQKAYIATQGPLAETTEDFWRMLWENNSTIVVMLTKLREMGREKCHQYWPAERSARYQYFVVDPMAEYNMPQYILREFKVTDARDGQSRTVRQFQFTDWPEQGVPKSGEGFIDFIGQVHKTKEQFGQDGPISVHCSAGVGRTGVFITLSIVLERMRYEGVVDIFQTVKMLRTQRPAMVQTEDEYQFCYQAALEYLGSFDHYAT

B1: 13G5 (mouse monoclonal antibody, IgG2b/κ) (antibody, V domains shown)
VH: EVKLVESGGGLVQPGGSLKLSCATSGFTFSDYYMYWVRQTPEKRLEWVAYISNGGGSTYYPDTVKGRFTISRDNAKNTLYLQMSRLKSEDTAMYYCARHVYYGRNYAMDYWGQGTSVTVSS
VL: DIQMTQTTSSLSASLGDRVTISCRASQDISNYLNWYQQKPDGTVKLLIYYTSRLHSGVPSRFSGSGSGTDYSLTISNLEQEDIATYFCQQGNTLPYTFGGGTKLEIK
notes: VH of 13G5; constant region of the mouse IgG2b heavy chain; VL of 13G5; constant region of the mouse κ light chain; IgG2b/κ; also called anti-PTPRS Ab 13G5; source: production contracted to Viva Biotech
For B1, the binding result in assay [1] and in [2] was “binds” in each case. Further, the koff in assay [3] was 0.00079 s⁻¹; in assay [4], 0.003 s⁻¹; in assay [6], 0.083 s⁻¹. Further, the Kd in [5] stood at 95 nM; in [7], 122 ± 1.9 nM; in assay [8] it was 6.03 nM. Moreover, the “mean fluorescence relative to 22H8” value in [9] is ~2 fold.

B2: 9H5 (mouse monoclonal antibody, IgG1/κ) (antibody, V domains shown)
VH: QVQLVETGGGLVRPGNSLKLSCVTSGFTFSNYRMHWLRQPPGKRLEWIAVITVKSDNYGANYAESVKGRFTISRDDSKSSVYLQMNRLREEDTATYYCSRSVYYGYVLAFDYWGQGTTLTVSS
VL: DIQMTQTTSSLSASLGDRVTISCRASQDISNYLNWYQQKPDGTVKLLIYYTSRLHSGVPSRFSGSGSGTDYSLTISNLEQEDIATYFCQQGNTLPWTFGGGTKLEIK
notes: VH of 9H5; constant region of the mouse IgG1 heavy chain; VL of 9H5; constant region of the mouse κ light chain; IgG1/κ; source: production contracted to Viva Biotech
With B2, the binding result in assay [10] is recorded as “no binding”.
